Experimental data published in article PMC10200060, “Inhibition of DAMP actions in the tumoral microenvironment using lactoferrin-glycyrrhizin conjugate for glioblastoma therapy” (Biomaterials Research, 2023).

Columns and labels:
U87MG spheroid = test: GBM spheroid growth inhibition; assay type: cell-based, human; conditions: GL equivalent 50 µM, day 6 (control 294%)
Protocol: Fig. S8. GBM spheroid growth inhibition of Lf-GL. To form U87MG spheroid, cells were seeded at density of 1X10^5 cells in concave mold (StemFIT 3D; MICROFIT, Korea). After spheroids were formed, they were transferred to 24-well plate coated with 2% agarose gel. The constructed spheroids were treated with conditioned medium at 2 days interval after a washing step with PBS. (a) Morphology of U87MG spheroid treated with Lf-GL of GL equivalent concentration of 50 µM on day 0, 2, 4 and 6, respectively. Scale bar: 200 µm (b) GBM spheroids time-related volume after treated with Lf-GL of GL equivalent concentration of 50 µM. Data were expressed as mean ± S.E.M (n=9). **P <0.01 versus Control.

HMGB1 [1] = test: HMGB1 ELISA of U87MG culture medium; assay type: cell-based, human; conditions: 50 μM GL equivalent, 48 h (control 131.8 ± 11.4)
Protocol: U87MG cells were seeded in 100 mm-cell culture dishes (2.2 × 10^6 cells per dish) and treated with GL, Lf, or Lf-GL (50 × 10^–6 M GL equivalent concentration) for 48 h. After incubating, cells were collected using a cell scrapper and were centrifuged for 3 min at 150 × g. Supernatant was collected as cell culture medium, and pellets were washed with cold PBS twice and transferred into a microcentrifuge tube. Tubes were centrifuged, and then pellets were resuspended in 500 μL 1X hypotonic buffer and incubated on ice. Then, 25 μL of NP40 was added and the mixture was agitated using a vortex mixer at the highest setting. Homogenates were centrifuged for 10 min at 842 × g at 4℃. Supernatant was collected as the cytoplasmic fraction, and pellets were resuspended in cell extraction buffer (50 μL) and were incubated for 30 min on ice with vortexing at 10 min intervals. Then, homogenates were centrifuged for 30 min at 14,000 × g at 4℃. Supernatant was collected as the nuclear fraction. The amount of HMGB1 in the samples was measured using a HMGB1 ELISA kit (Abbkine), and absorbance was measured at 450 nm in a micro-plate reader. A DNA assay (Quant-iT™ dsDNA Assay Kit, Invitrogen) was also conducted to express HMGB1 concentrations in equivalent amounts of DNA.

[2] = In vivo fluorescence tracer image (brain); parameters: species or system Balb/c mice; conditions: FITC-tagged
Protocol: For the fluorescence tracer images, Balb/c mice were administered either FITC-tagged GL or FITC-tagged Lf-GL at a GL equivalent concentration of 50 mg kg^−1 body weight via tail vein injection. After 1, 10, 30, and 60 min, the experimental mice were sacrificed, and the organs were extracted. The fluorescence signals of FITC-tagged GL or FITC-tagged Lf-GL in organs were imaged using an in vivo imaging system (FOBI, CELLGENTEK, South Korea). The exposure time was fixed to 200 s for analyzing fluorescent signals from tissues. The quantified fluorescence signal of the brain at each time point was measured in terms of intensity units (IU, Intensity Min^−1 Gain^−1).
Fig. S15. Fluorescence tracer images of intravenously injected GL and Lf-GL. Balb/c mice were administered either FITC-tagged GL or FITC-tagged Lf-GL at a GL equivalent concentration of 50 mg kg^-1 body weight via tail vein injection. The fluorescence signals of FITC-tagged GL or FITC-tagged Lf-GL in organs were imaged using an in vivo imaging system (FOBI, CELLGENTEK, South Korea). The exposure time was fixed to 200 sec for analyzing fluorescent signals from tissues. The quantified fluorescence signal of brain at each time point was measured with Intensity Unit (IU, Intensity Min^-1 Gain^-1).

[3] = GBM targeted-GL by HPLC in brain homogenate; assay type: in vivo, orthotopic GBM model mice
Protocol: Orthotopic GBM mice model mice were used for quantification of GBM targeting efficacy. The brain tissue was homogenized in deionized water at a 33.3 w/v (%) using a FastPrep-24 5G (MP biomedical, South Korea). The GL were added to pooled brain homogenate to obtain seven-point calibration curves with a range of 10–1000 ng mL^−1. Then, homogenate (50 μL) was mixed with methanol (100 μL). […] Thereafter, supernatants (100 μL) were mixed with mobile phase solution (900 μL), then filtered with a 0.22 μm syringe filter. Samples were collected in a 2 mL HPLC vial (Screw top vial, Waters, USA) and analyzed by HPLC at 254 nm. […] Mice were sacrificed and brain tissues were collected 10 min after the GL and Lf-GL injection. The samples for quantification were also conducted using the same process as GL standard preparation.

[4] = test system: orthotopic GBM (U87MG) mice model; test: Survival in orthotopic GBM mouse model; assay type: in vivo, Balb/c nude mice; conditions: i.v. GL equivalent 50 mg kg^−1 (Lf 5 mg kg^−1)
Protocol: To establish the orthotopic GBM mice model, GBM cells (U87MG, inoculation density: 1.0 × 10^6 cells per 10 μL) were stereotactically injected into the right striatum of Balb/c nude mice. Then, mice were randomly divided into four groups (n = 5): control, GL, Lf, and Lf-GL treated group. […] After four weeks, mice were sacrificed, and organs were harvested and fixed with 4% paraformaldehyde for further analysis.

HMGB1 [5] = test: Immunofluorescence staining of HMGB1 in GBM tissue; assay type: in vivo, Balb/c nude mice; conditions: GBM mice, daily i.v. GL equivalent 50 mg kg^−1, 14 days (control 15.3 ± 1.7)
Source text: (§1) After two weeks, mice were sacrificed, and the brains were harvested and fixed with paraformaldehyde (4%). Then, tissue processing was automatically conducted using a Leica TP1020 semi-enclosed Benchtop Tissue Processor (Leica Biosystems, Wetzlar, Hesse, Germany), followed by embedding in paraffin blocks. Paraffin blocks were sliced into 5 μm thick slices using a Leica RM2145 Microtome (Leica Biosystems). Nissl staining was used to stain brain tissue slides with pre-warmed 0.1% Cresyl Violet Stain Solution (Abcam). TUNEL assays were conducted following the manufacturer’s instructions. For immunofluorescence staining; anti-HMGB1 antibody (Abcam), anti-Ki67 antibody (Abcam), anti-CD31 antibody (Abcam), and anti-VEGF antibody (Abcam) were used as primary antibodies, and goat anti-rabbit IgG-H&L Alexa Fluor 488 and goat anti-rabbit IgG H&L Alexa Fluor 647 were used as secondary antibodies, followed by DAPI mounting.

CD31 = test: Immunofluorescence staining of CD31 in GBM tissue; assay type: in vivo, Balb/c nude mice; conditions: GBM mice, daily i.v., 14 days (control MFI 14.7 ± 1.4)
Source text: as §1

B1: Lf-GL: lactoferrin-glycyrrhizin conjugate with ligation ratio Lf:GL 1:10, used in further experiments (conjugate, UniProt P24627 20-708, looked up)
Lactotransferrin: APRKNVRWCTISQPEWFKCRRWQWRMKKLGAPSITCVRRAFALECIRAIAEKKADAVTLDGGMVFEAGRDPYKLRPVAAEIYGTKESPQTHYYAVAVVKKGSNFQLDQLQGRKSCHTGLGRSAGWIIPMGILRPYLSWTESLEPLQGAVAKFFSASCVPCIDRQAYPNLCQLCKGEGENQCACSSREPYFGYSGAFKCLQDGAGDVAFVKETTVFENLPEKADRDQYELLCLNNSRAPVDAFKECHLAQVPSHAVVARSVDGKEDLIWKLLSKAQEKFGKNKSRSFQLFGSPPGQRDLLFKDSALGFLRIPSKVDSALYLGSRYLTTLKNLRETAEEVKARYTRVVWCAVGPEEQKKCQQWSQQSGQNVTCATASTTDDCIVLVLKGEADALNLDGGYIYTAGKCGLVPVLAENRKSSKHSSLDCVLRPTEGYLAVAVVKKANEGLTWNSLKDKKSCHTAVDRTAGWNIPMGLIVNQTGSCAFDEFFSQSCAPGADPKSRLCALCAGDDQGLDKCVPNSKEKYYGYTGAFRCLAEDVGDVAFVKNDTVWENTNGESTADWAKNLNREDFRLLCLDGTRKPVTEAQSCHLAVAPNHAVVSRSDRAAHVKQVLLHQQALFGKNGKNCPDKFCLFKSETKNLLFNDNTECLAKLGGRPTYEEYLGTEYVTAIANLKKCSTSPLLEACAFLTR
modifications: glycyrrhizin conjugate
U87MG spheroid
  Spheroid volume increase at day 6 compared to day 0: 156%
HMGB1 [1]
  HMGB1 released into the medium of U87MG cells: 74.0 ± 0.9 ng/mL
[2]; i.v. GL equivalent 50 mg kg^−1
  Time up to which fluorescence signal was detected in the brain: up to 60 min
[2]; i.v. GL equivalent 50 mg kg^−1, 10 min after injection
  Fluorescence intensity in the brain: 15,234 I.U.
[3]; brain/GBM accumulation
  Accumulated amount higher than GL without Lf conjugation: twofold
[3]; orthotopic GBM mice, i.v. GL equivalent 50 mg kg^−1, 10 min after injection
  GL concentration detected in brain homogenate: 19.3 ± 1.6 µg/mL
[4]
  Mice survived up to 28 days: 87.5%
[4]; 28 days
  Additional days of survival versus PBS control: 5 days
HMGB1 [5]
  Mean fluorescence intensity (MFI) of HMGB1: 1.7 ± 1.0
CD31
  Decrease of MFI of CD31: sevenfold
